Source: paper PMC2837359 (Journal of molecular biology, 2009)

Target: the molecule itself
Experiment: single particle electron microscopy

B1: galactose permease (GalP), H+/galactose symporter from E. coli, His6-tagged (natural protein, UniProt P0AEP1 1-464, looked up)
chain: MPDAKKQGRSNKAMTFFVCFLAALAGLLFGLDIGVIAGALPFIADEFQITSHTQEWVVSSMMFGAAVGAVGSGWLSFKLGRKKSLMIGAILFVAGSLFSAAAPNVEVLILSRVLLGLAVGVASYTAPLYLSEIAPEKIRGSMISMYQLMITIGILGAYLSDTAFSYTGAWRWMLGVIIIPAILLLIGVFFLPDSPRWFAAKRRFVDAERVLLRLRDTSAEAKRELDEIRESLQVKQSGWALFKENSNFRRAVFLGVLLQVMQQFTGMNVIMYYAPKIFELAGYTNTTEQMWGTVIVGLTNVLATFIAIGLVDRWGRKPTLTLGFLVMAAGMGVLGTMMHIGIHSPSAQYFAIAMLLMFIVGFAMSAGPLIWVLCSEIQPLKGRDFGITCSTATNWIANMIVGATFLTMLNTLGNANTFWVYAALNVLFILLTLWLVPETKHVSLEHIERNLMKGRKLREIGAHD
- stoichiometry N: 3
